The target in assay [1] is T1, Mouse Id4: Histidine (mouse, UniProt P41139 1-161, limits assumed).
T1 construct: E. coli fusion protein (vector pGW07); also called m-Id4: His; not shown: His-tag
T1 sequence (looked up): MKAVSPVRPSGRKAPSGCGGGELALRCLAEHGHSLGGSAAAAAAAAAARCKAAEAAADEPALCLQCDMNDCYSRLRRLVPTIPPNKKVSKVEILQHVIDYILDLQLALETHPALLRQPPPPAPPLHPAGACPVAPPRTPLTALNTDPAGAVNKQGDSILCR
As to the kind of experiment: ELISA, coated antigen, Ab 0.025 ug/ml. (In general: ELISA stands for enzyme-linked immunosorbent assay.)

The target of assay [2] is T2, Human Id4: Histidine (human, UniProt P47928 1-161, limits assumed).
T2 construct: E. coli fusion protein (vector pGW07); also called h-Id4: His; not shown: His-tag
T2 sequence (looked up): T1 sequence (looked up) with L125H, A130T, V133A
As to the kind of experiment: ELISA, coated antigen, Ab 0.025 ug/ml.

In assay [3] the target is T3, Mouse Id1: Histidine (mouse, UniProt P20067-2 1-148).
T3 construct: E. coli fusion protein (vector pGW07); also called m-Id1-His; not shown: His-tag
T3 sequence: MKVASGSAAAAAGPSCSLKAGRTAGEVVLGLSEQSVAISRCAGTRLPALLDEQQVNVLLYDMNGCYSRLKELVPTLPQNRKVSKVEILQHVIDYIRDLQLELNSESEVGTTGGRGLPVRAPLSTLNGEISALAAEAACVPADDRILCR
In words: ELISA, coated antigen, Ab 0.025 ug/ml.

The target of assay [4] is T4, Mouse Id2: Histidine (mouse, UniProt P41136 1-134, limits assumed).
T4 construct: E. coli fusion protein (vector pGW07); also called m-Id2: His; not shown: His-tag
T4 sequence (looked up): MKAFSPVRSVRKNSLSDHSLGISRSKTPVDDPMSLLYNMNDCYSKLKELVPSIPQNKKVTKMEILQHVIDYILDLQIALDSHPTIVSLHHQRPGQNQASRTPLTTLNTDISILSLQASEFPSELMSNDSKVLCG
As to the kind of experiment: ELISA, coated antigen, Ab 0.025 ug/ml.

Assay [5] concerns the target T5, Human Id2: Histidine (human, UniProt Q02363 1-134, limits assumed).
T5 construct: E. coli fusion protein (vector pGW07); also called h-Id2: His; not shown: His-tag
T5 sequence (looked up): T4 sequence (looked up) with T60S, V131A
In words: ELISA, coated antigen, Ab 0.025 ug/ml.

In assay [6] the target is T6, Mouse Id3: Histidine (mouse, UniProt P41133 1-119, limits assumed).
T6 construct: E. coli fusion protein (vector pGW07); also called m-Id3: His; not shown: His-tag
T6 sequence (looked up): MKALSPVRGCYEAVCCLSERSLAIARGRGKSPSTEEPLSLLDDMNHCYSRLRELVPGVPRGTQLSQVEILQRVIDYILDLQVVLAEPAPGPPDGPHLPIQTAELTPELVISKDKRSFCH
As to the kind of experiment: ELISA, coated antigen, Ab 0.025 ug/ml.

For assay [7], the target named is T7, Human Id3: Histidine (human, UniProt Q02535 1-119, limits assumed).
T7 construct: E. coli fusion protein (vector pGW07); also called h-Id3: His; not shown: His-tag
T7 sequence (looked up): T6 sequence (looked up) with S31G, S33A, T34A, K112N
As to the kind of experiment: ELISA, coated antigen, Ab 0.025 ug/ml.

Assay [8] addresses T1, Mouse Id4: Histidine. In words: ELISA, coated antigen, Ab 0.250 ug/ml.
The target in assay [9] is T2, Human Id4: Histidine. As to the kind of experiment: ELISA, coated antigen, Ab 0.250 ug/ml.
Assay [10] concerns the target T3, Mouse Id1: Histidine. As to the kind of experiment: ELISA, coated antigen, Ab 0.250 ug/ml.
Assay [11] has as its target T4, Mouse Id2: Histidine. As to the kind of experiment: ELISA, coated antigen, Ab 0.250 ug/ml.
Assay [12] concerns the target T5, Human Id2: Histidine. As to the kind of experiment: ELISA, coated antigen, Ab 0.250 ug/ml.
The target in assay [13] is T6, Mouse Id3: Histidine. In words: ELISA, coated antigen, Ab 0.250 ug/ml.
Assay [14] addresses T7, Human Id3: Histidine. In words: ELISA, coated antigen, Ab 0.250 ug/ml.
In assay [15] the target is T1, Mouse Id4: Histidine. In words: ELISA, coated antigen, Ab 0.005 ug/ml.
For assay [16], the target named is T2, Human Id4: Histidine. In words: ELISA, coated antigen, Ab 0.005 ug/ml.
The target of assay [17] is T5, Human Id2: Histidine. In words: ELISA, coated antigen, Ab 0.005 ug/ml.
Assay [18] concerns the target T1, Mouse Id4: Histidine. As to the kind of experiment: ELISA, coated antigen, Ab 0.000 ug/ml (blank, diluent only).
Assay [19] addresses T2, Human Id4: Histidine. The description is as above.
Assay [20] has as its target T4, Mouse Id2: Histidine. Described as above.
For assay [21], the target named is T6, Mouse Id3: Histidine. Described as above.
Assay [22] has as its target T7, Human Id3: Histidine. Described as above.

Substitutions are numbered along the chain they refer to.

As to “rabbit monoclonal anti-human Id1, clone #BCH-2/#5-3 (antibody)”, the A450 in the assay with Mouse Id4: Histidine [1] came out at 0.047 A450; with Human Id4: Histidine [2] it was 0.049 A450; with Mouse Id1: Histidine [3], 0.053 A450; with Mouse Id2: Histidine [4] it was 0.048 A450; with Human Id2: Histidine [5] it was 0.049 A450; with Mouse Id3: Histidine [6] it was 0.046 A450. Besides, the A450 with Human Id3: Histidine [7] was 0.046 A450; in the assay with Mouse Id4: Histidine [8], 0.053 A450; in the assay with Human Id4: Histidine [9] it was 0.047 A450; with Mouse Id1: Histidine [10] it was 0.092 A450; with Mouse Id2: Histidine [11], 0.052 A450; with Human Id2: Histidine [12] it was 0.056 A450. Further, the A450 with Mouse Id3: Histidine [13] was found to be 0.05 A450; with Human Id3: Histidine [14], 0.048 A450; in the assay with Mouse Id4: Histidine [15] it was 0.045 A450; in the assay with Human Id4: Histidine [16], 0.049 A450; with Human Id2: Histidine [17], 0.049 A450; in the assay with Mouse Id4: Histidine [18], 0.045 A450. For the same substance, the A450 with Human Id4: Histidine [19] was 0.046 A450; in the assay with Mouse Id2: Histidine [20], 0.051 A450; with Mouse Id3: Histidine [21] it was 0.058 A450; in the assay with Human Id3: Histidine [22], 0.052 A450.

Take “rabbit monoclonal anti-mouse/human Id1, clone #BCH-1/#195-14 (antibody)”: the A450 with Mouse Id4: Histidine [1] stood at 0.046 A450; with Human Id4: Histidine [2] it was 0.045 A450; in the assay with Mouse Id1: Histidine [3], 0.876 A450; with Mouse Id2: Histidine [4] it was 0.049 A450; with Human Id2: Histidine [5], 0.05 A450; with Mouse Id3: Histidine [6] it was 0.047 A450. The A450 with Human Id3: Histidine [7] came out at 0.047 A450; with Mouse Id4: Histidine [8], 0.048 A450; in the assay with Human Id4: Histidine [9], 0.048 A450; with Mouse Id1: Histidine [10], 2.57 A450; with Mouse Id2: Histidine [11] it was 0.053 A450; with Human Id2: Histidine [12], 0.057 A450. Moreover, the A450 in the assay with Mouse Id3: Histidine [13] was 0.049 A450; with Human Id3: Histidine [14] it was 0.052 A450; in the assay with Mouse Id4: Histidine [15], 0.047 A450; with Human Id4: Histidine [16], 0.044 A450; in the assay with Human Id2: Histidine [17] it was 0.048 A450; with Mouse Id4: Histidine [18], 0.047 A450. In addition, the A450 in the assay with Human Id4: Histidine [19] turned out to be 0.046 A450; in the assay with Mouse Id2: Histidine [20] it was 0.051 A450; with Mouse Id3: Histidine [21], 0.05 A450; with Human Id3: Histidine [22] it was 0.049 A450.

(Values after patent US20060286609A1 (BIOCHECK, published 2006).)
